Legend:
[1] = target: IgE on the surface of patients' basophils (human (endogenous in patients' blood)); test: flow cytometry on cells; EDTA blood of allergic donors preincubated with 026 sdab (0 to 45 µmol/l) for up to 60 min in IL-3-containing stimulation buffer; remaining surface IgE on basophils stained with anti-IgE-FITC
[2] = target: IgE Fc Cε2–4 (human); test: SPR; Biacore T200; IgE Fc immobilized (110 RU) on CM5 by NHS/EDC; 026 sdab injected 0.003-50 µg/ml, 25 µl/min; 25 °C; 10 mM monosodium phosphate, 40 mM disodium phosphate, 100 mM NaCl, pH 7.4, 0.01% Tween-20; 1:1 binding model

Chain of IgE on the surface of patients' basophils (human (endogenous in patients' blood)) (P01854 whole entry): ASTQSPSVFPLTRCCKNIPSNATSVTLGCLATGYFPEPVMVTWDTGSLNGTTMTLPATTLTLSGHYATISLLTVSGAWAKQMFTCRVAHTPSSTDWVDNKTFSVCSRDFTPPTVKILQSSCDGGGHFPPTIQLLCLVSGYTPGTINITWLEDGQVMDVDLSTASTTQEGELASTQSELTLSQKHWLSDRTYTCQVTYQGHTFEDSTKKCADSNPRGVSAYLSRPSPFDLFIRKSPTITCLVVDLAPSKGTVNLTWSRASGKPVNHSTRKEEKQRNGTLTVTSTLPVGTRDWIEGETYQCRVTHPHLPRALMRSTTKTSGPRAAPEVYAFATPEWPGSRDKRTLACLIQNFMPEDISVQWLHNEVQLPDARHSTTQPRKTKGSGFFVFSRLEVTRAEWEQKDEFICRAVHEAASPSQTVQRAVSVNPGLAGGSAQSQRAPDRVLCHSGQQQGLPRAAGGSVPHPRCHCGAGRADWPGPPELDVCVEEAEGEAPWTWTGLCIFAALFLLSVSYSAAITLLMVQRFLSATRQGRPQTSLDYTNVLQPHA

B1: 026 sdab (VHH)
VHH: EVQLLESGGGLVQPGGSLRLSCAASGFTFGNYDMAWVRQAPGKRPEWVSSIDTGGDITHYADSVKGRFTISRDNAKNTLYLQMNSLRPEDTAVYWCATDEEYALGPNEFDYYGQGTLVTVSS
- surface IgE left on basophils after 15 min with 026 sdab [1]: 30%
- surface IgE left on basophils after prolonged incubation with 026 sdab [1]: 20%
- Kd [2]: 1.4 nM
